According to US12466878 (dated 2025):

Target: HLA-A*02:01 (human;)
Assay: ELISA

Kd: 0.874 nM
Binder: KIQEILTQV [IGF2BP3-001 peptide KIQEILTQV (SEQ ID NO: 1)]
